Assay results as given in US20220281973A1 (TRUEBINDING, published 2022).

T1: hLRIG1 Peptide 70 (human)
T1 construct: 20 amino acid peptide of the LRIG1 peptide library
T1 peptide: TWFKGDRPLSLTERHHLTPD

T2: hLRIG1 Peptide 71 (human)
T2 construct: 20 amino acid peptide of the LRIG1 peptide library
T2 peptide: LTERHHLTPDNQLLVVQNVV

T3: human LRIG1 extracellular domain fused to a linker-spaced 6-histidine tag, LRIG1-ECD-His (R&D systems, … (human, UniProt Q96JA1 35-794))
T3 construct: Bought protein; also called human LRIG1-His; hLRIG1-His; not shown: linker-spaced 6-histidine tag
T3 sequence: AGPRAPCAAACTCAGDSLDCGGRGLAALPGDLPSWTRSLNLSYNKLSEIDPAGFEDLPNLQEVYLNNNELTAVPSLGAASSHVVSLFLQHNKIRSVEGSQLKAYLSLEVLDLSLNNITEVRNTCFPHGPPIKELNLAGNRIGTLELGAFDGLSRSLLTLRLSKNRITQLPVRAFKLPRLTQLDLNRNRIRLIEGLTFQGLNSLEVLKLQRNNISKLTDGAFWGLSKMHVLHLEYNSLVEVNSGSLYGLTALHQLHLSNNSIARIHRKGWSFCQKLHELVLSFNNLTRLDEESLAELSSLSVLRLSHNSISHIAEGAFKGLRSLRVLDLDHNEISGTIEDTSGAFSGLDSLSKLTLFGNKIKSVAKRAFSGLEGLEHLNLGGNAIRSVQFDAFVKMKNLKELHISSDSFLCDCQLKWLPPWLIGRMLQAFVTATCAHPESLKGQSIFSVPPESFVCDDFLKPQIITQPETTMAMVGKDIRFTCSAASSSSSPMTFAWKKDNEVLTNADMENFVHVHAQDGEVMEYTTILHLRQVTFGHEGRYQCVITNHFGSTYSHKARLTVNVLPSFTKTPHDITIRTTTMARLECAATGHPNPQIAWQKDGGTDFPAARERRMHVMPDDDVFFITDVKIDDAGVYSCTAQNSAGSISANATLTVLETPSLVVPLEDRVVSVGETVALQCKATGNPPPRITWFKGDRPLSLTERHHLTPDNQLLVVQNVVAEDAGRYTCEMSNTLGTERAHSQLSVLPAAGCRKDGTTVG

B1: 802.4H12.2A9 (antibody, V domains shown)
VH: EVQLVESGGGLVKPGGSLKLSCAASGFTFSSYTMSWVRQTPEKTLEWVATISDGGRYTYYPDNVKGRFTISRDNANNNLYLQMSHLKSEDTAMYYCARGWLLRNFDFWGQGTTLTVSS
VL: DVVMTQTPLSLPVSLGDQASISCRSSQSIVHSNGNTYLEWYLQKPGQSPKLLIYKVSNRFSGVPDRFSGSGSGTDFTLKISRVEAEDLGVYYCFQGSHVPLTFGAGTKLELK
notes: Mouse hybridoma monoclonal
B2: 802.2F4.2C7 (antibody, V domains shown)
VH: EVQLQQSGTVLARPGASVKMSCKASGYNFINSWMHWVKQRPGQGLEWIGAFYPGNSDTRYNQKFMGKAKLTAVTSASTAYMEVSSLTNEDSAVYYCTELGGDYWGQGTTLTVSS
VL: DVVMTQTPLSLPVSLGDQASISCRSSQSLVHNDGNTYLHWFLQKPGQSPKLLIHKVSNRFSGVPDRFSGSGSGTDFTLKISRVEAEDLGVYFCSQSTHVPYTFGGGTKLEIK
notes: Mouse hybridoma monoclonal
B3: 802.3E6.2F9 (antibody, V domains shown)
VH: QVQLQQSGAELMKPGASVKISCKVTGHTFSSYWIEWVKQRPGHGLEWIGEILPGKGNTEYNEKFKGKATFTADTSSNTAYMQLSSLTSEDSAVYYCARNFDVWGAGTTVTVSS
VL: DVVMTQTPLSLPVSLGDQASISCRSSQSLVHRNGHTYLHWYLQKPGQSPKLLIYKVSNRFSGVPDRFSGSVSGTDFTLKISRVEGEDVGVYFCSQSTHVPYTFGGGTKLEIK
notes: Mouse hybridoma monoclonal
B4: 802.3E6.2H9 (antibody, V domains shown)
VH: QVQKQQPGAELVMPGASVKLSCKASGYTFTSYWMHWVMQRPGQGLEWIGDIDPSDSYTNYNQQFKGKATLTVDISSSSAYMQLSSLTFEDSAVYYCARARVDFDYWGRGTTLTVSS
VL: EIVLTQSPALLAASPGDKVTITCSVSSSISSSTLHWYQQKSGTSPKPWIYGTSNLASGVPVRFSGSGSGTSYSLTISSMEAEDAATYYCQQWSGYPLTFGAGTKLELK
notes: Mouse hybridoma monoclonal
B5: 802.4B6.2F6 (antibody, V domains shown)
VH: QVQLQQSGPELVKPGASVKLSCKASGYTFTSYDINWVKQRPGQGLEWIGWIYPRDGTTKYNEKFKGKATLTVDTSSSTAYMEIHSLTSEDSAVYFCAREDYGSSFHNWGQGTTLTVSS
VL: NIVMTQSPKSMSMSVGERVTLSCKASEDVDTYVSWYQQKPNQSPKLLIYGASNRYTGVPDRFTGSGSATDFTLTISSVQAEDLADYYCGQSYSYPWTFGGGTKLEIK
notes: Mouse hybridoma monoclonal
B6: 802.3B10.2C10 (antibody, V domains shown)
VH: DVQLQESGPGLVKPSLSLSLTCTVTGYSITSGYDWHWIRHFPGNILEWMGYISYSGYTNYNPSLKSRISITHDTSKNHFFLKLNSVTTEDTATYYCARDSNWYFDVWGAGTTVTVSS
VL: NIVMTQSPKSMSMLVGERVILNCKASENVDTYVSWYQQKPEQSPKLLIYGASNRYTGVPDRFTGSGSATDFTLTISSVQGEDLADYYCGQSHNYPYTFGSGTKLEIK
notes: Mouse hybridoma monoclonal
B7: 802.1H3.2A4 (antibody, V domains shown)
VH: QVQLQQPGDELVKPGASVKLSCKASGYTFTSFWIHWVKQRPGQGLEWIGNIYPGSSSANYNEKFKSKATLTVDTSSSTAYMQLSSLTSDDSAVYYCARSSYRYSYYSWGQGTTLTVSS
VL: DVVMTQTPLSLPVSLGDQASISCRSSQSIVHSNGNTFLEWYLQKPGQSPNLLIYKVSNRFSGVPDRFSGSGSGTDFTLKISRVEAEDLGVYYCFQGSHVPLSFGAGTKLELK
notes: Mouse hybridoma monoclonal
B8: 802.4B6.2E11 (antibody, V domains shown)
VH: QVQLQQPDTELVKPGASVKLSCRASGYTFTSYWINWVKQRPGQGLEWIGNIYPGTSSTNYNEKFKSKATLTVDPSSSTAYMQLSSLTSDDSAVYYCSRSSYRYTYYSWGQGTTLTVSS
VL: DVVMTQTPLSLPVSLGDQASISCRSSQSIVQSNGITYLEWYLKKPGQSPNLLIYKVSNRLSGVPDRFSGSGSGTDFTLKISRVEADDLGVYYCFQGSHVPLTFGAGTKLELK
notes: Mouse hybridoma monoclonal
B9: 802.3D5.2G4 (antibody, V domains shown)
VH: EVKLEESGGGLVQPGGSMTLSCVASGFTFSNYWVNWVRQSPEKGLEWVAQIRLKSENYPTHYAESVKGRFTVSRDDSKSSVYLQMNNLRAEDTGIYYCTGRGYSNYAWGQGTTLTVSS
VL: DIVMTQTPLSLPVSLGDQASISCRSSQSIVHSNGNTYLEWYLQKPGQSPKLLIYKVSNRFSGVPDRFSGSGSGTDFTLKISRVEAEDLGVYYCFQGSHFPWTFGGGTKLEIK
notes: Mouse hybridoma monoclonal
B10: 802.4C12.3C5 (antibody, V domains shown)
VH: QVQLQQSGGELMKPGASVKLSCKATGYTFTGYWIEWVKQRPGHGLEWIGEILPGSGRTYYNEKFKGKATFTADTSSNTAYMQLSSLTTEDSAIYYCAREIYDGHYEAWYAYWGQGTLVTVSA
VL: DVVMTQTPLSLSVTIGQPASISCKSSQSLLYSDGKTYLNWLQQRPGQSPKRLMYQVSKLDPGIPDRFSGSGSETDFTLEISRVEAEDLGVYYCLQGTYYPHTFGSGTKLEIK
notes: Mouse hybridoma monoclonal
B11: 802.2F11.2B6 (antibody, V domains shown)
VH: QVQLQQSGAELMKPGASVKLSCKATGYTFTGYWIEWVKQRPGHGLEWIGEILPGSGSTHYNEKFKGKATFTADTSSNTAYIQLSSLTTEDSAIYYCEREVYDNDEGAWFANWGQGTLVTVSA
VL: DVVMTQTPLSLSVTIGQPASISCKSSQSLLYSDGKTYLNWLQQRPGQSPKRLMYQVSKLDPGIPDRFSGSGSETDFTLKISRVEAEDLGVYYCLQGTYYPHTFGSGTKLEIK
notes: Mouse hybridoma monoclonal
B12: 802.2B7.2D9 (antibody, V domains shown)
VH: QVQLKQSGPGLVQPSQSLSITCTVSGFSLTSYGVHWVRQSPGKGLEYLGVIWSGGSTDYNAAFISRLSISKDNSKSQVFFKMNSLRADDTAIYYCARNWAYYSNHYYVMDYWGQGTSVTVSS
VL: DIQMTQSPASLYAFVGETVTITCRASENIYSYLAWYHQKQGKSPQLLVYNSNSLAEGVPLRFSGSGSGTQFSLKINSLQPEDFGNYYCQHHYVTPLTFGGGTKLEMK
notes: Mouse hybridoma monoclonal

Biological target: T1, hLRIG1 Peptide 70
Assay: peptide ELISA of Example 2, as told in Example 3
Method: (§1) To identify the epitopes to which LRIG1 antibodies with and without VISTA-LRIG1 blocking activity bound, a library of 20 amino acid peptides representing portions of LRIG1 was produced, and the ability to bind LRIG1 antibodies was evaluated by ELISA. At least 2 ug/ml of hLRIG1 peptide in 50 μl of PBS or 0.1 ug/ml of full-length human LRIG1 protein (R&D Systems) in 100 μl of PBS was added to the wells of a 96-well ELISA plate (Thermo Fisher, 44-2404-21). After incubating the plate at 4° C. overnight, the plate was washed three times with 300 μl of PBST per well. The plate was then blocked for an hour with 200 μl of 2% BSA in PBST per well at room temperature with gentle rocking. Thereafter, the 2% BSA in PBST was removed and 100 μl of 0.1 ug/ml of antibody in 2% BSA in PBST was added to the wells. The plate was incubated for an hour at room temperature with gentle rocking and then washed three times with 300 μl of PBST per well. Afterwards, 100 μl of anti-mouse IgG-HRP (1:4000) (Jackson ImmunoResearch) or anti-rat IgG HRP (1:4000) (Jackson ImmunoResearch) was added to the wells. The plate was incubated for 30 minutes at room temperature with gentle rocking and then washed three times with 300 μl of PBST per well. 100 μl of TMB substrate (Fisher Scientific, 34029) was then added to each well. The reaction was stopped with 50 μl of 1 M HCl (VWR) per well. The plate was read using a plate reader (Molecular Devices) at absorbance of 450 nm, and signal greater than 0.25 OD was considered evidence of peptide binding.

Binding result, binds:
B1

Biological target: T2, hLRIG1 Peptide 71
Assay: peptide ELISA of Example 2, as told in Example 3
Method: as §1

Binding result, binds:
B1

Each binder was assayed against T3, human LRIG1 extracellular domain fused … (assay: LRIG1 ECD ELISA-positive hybridoma antibodies tested in blocking ELISA on plate-bound LRIG1-ECD-His).
Method: Positively scoring wells were evaluated for the ability to block association of LRIG1 and VISTA. To identify LRIG1-targeted antibodies with the ability to block the interaction of LRIG1 and VISTA, purified LRIG1 and VISTA proteins were incubated in the presence of LRIG1-immunization hybridoma supernatants described above, or without antibody, and protein interaction was evaluated by ELISA. Purified human LRIG1 extracellular domain fused to a HIS tag (R&D Systems) was diluted in phosphate buffered saline (PBS) (Corning) to a concentration of 3 μg/ml and 100 μl was added to each well of a 96-well ELISA plate (Thermo Fisher, 44-2404-21). After incubating the plate at 4° C. overnight, the plate was washed three times with 300 μl of PBS with 0.05% TWEEN (VWR) (PBST) per well. The plate was then blocked for an hour with 200 μl of 2% bovine serum albumin (BSA) (Sigma) in PBST per well at room temperature with gentle rocking. Thereafter, the 2% BSA in PBST was removed and 50 μl of hybridoma supernatant diluted to 3.3 ug/mL was added to the wells. The plate was incubated for 10 minutes at room temperature with gentle rocking. Afterwards, 100 ul of 50 nM oligomerized VISTA in 100 ul PBS buffer was added per well. VISTA oligomerization was performed by Klickmer formation. Briefly, 5 nM Klickmer (Immudex) was incubated with 200 nM hVISTA-Fc-Avi-Biotin in PBS and incubated for one hour. The plate was incubated for an hour at room temperature with gentle rocking. Thereafter, the plate was washed three times with 300 μl of PBST per well, and 100 μl of avidin-HRP (1:1000) (Jackson ImmunoResearch) was then added to each well and the plate was incubated at room temperature for 30 minutes with gentle rocking. Thereafter, the plate was washed three times with 300 μl of PBST per well. 100 μl of TMB substrate (Fisher Scientific, 34029) was then added to each well. The reaction was stopped with 50 μl of 1 M HCl (VWR) per well. The plate was read using a spectrophotometer (Molecular Devices) at absorbance of 450 nm. Percent blockade of LRIG1-VISTA interaction was calculated as the fraction of signal obtained in each experimental samples of the no antibody sample less background signal.

Binding result, binds:
B2, B3, B4, B5, B6, B7, B1, B8, B9, B10, B11, B12
